Test results published in US20240182536A1 (MURAL ONCOLOGY, published 2024).

T1: IL-18 receptor (IL-18Rα and IL-18Rβ) (UniProt Q13478 19-541; O95256 20-599, limits assumed)
T1 sequence (looked up) 1: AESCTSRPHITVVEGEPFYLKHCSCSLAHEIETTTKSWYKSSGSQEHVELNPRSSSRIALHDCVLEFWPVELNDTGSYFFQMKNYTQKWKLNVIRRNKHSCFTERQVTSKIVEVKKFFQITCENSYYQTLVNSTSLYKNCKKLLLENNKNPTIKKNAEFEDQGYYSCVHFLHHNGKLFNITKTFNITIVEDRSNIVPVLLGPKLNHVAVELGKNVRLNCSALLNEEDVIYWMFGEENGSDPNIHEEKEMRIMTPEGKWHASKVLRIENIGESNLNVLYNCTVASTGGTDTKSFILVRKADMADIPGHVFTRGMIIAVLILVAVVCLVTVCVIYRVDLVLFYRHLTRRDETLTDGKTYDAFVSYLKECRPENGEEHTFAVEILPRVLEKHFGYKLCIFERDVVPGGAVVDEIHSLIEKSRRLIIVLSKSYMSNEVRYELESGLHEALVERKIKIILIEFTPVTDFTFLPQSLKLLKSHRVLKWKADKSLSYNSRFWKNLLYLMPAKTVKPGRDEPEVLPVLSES
T1 sequence (looked up) 2: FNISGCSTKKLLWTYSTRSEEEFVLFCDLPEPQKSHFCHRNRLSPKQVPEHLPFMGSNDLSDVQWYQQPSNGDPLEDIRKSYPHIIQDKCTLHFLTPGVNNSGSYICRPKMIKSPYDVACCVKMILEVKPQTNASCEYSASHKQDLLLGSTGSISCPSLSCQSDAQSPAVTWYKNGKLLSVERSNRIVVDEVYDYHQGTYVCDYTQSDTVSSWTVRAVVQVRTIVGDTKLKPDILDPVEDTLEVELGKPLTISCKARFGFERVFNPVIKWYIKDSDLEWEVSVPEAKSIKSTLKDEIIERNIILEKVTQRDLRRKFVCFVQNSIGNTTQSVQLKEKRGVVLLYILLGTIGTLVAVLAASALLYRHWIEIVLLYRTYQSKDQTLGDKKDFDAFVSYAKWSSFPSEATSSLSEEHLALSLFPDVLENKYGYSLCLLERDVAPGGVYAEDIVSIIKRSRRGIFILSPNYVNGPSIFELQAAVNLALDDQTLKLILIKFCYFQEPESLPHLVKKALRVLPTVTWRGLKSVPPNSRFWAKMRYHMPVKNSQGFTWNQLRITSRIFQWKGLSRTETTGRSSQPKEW

T2: IL-18 receptors on HEK-Blue IL-18 reporter cells (InvivoGen) (UniProt Q13478 19-541; O95256 20-599)
T2 sequence (looked up) 1: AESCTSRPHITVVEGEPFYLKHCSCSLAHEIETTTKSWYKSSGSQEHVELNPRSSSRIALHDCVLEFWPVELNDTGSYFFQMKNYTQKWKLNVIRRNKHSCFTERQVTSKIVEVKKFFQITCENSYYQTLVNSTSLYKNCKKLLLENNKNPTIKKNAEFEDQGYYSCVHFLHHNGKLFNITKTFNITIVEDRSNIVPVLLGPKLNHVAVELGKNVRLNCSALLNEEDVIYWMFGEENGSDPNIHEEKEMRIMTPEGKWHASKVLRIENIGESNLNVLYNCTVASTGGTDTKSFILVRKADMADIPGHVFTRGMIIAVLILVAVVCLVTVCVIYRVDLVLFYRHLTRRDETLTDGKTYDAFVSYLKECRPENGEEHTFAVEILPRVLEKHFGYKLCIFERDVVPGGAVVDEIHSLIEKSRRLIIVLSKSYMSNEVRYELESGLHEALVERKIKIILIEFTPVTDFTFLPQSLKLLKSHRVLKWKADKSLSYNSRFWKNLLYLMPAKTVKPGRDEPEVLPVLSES
T2 sequence (looked up) 2: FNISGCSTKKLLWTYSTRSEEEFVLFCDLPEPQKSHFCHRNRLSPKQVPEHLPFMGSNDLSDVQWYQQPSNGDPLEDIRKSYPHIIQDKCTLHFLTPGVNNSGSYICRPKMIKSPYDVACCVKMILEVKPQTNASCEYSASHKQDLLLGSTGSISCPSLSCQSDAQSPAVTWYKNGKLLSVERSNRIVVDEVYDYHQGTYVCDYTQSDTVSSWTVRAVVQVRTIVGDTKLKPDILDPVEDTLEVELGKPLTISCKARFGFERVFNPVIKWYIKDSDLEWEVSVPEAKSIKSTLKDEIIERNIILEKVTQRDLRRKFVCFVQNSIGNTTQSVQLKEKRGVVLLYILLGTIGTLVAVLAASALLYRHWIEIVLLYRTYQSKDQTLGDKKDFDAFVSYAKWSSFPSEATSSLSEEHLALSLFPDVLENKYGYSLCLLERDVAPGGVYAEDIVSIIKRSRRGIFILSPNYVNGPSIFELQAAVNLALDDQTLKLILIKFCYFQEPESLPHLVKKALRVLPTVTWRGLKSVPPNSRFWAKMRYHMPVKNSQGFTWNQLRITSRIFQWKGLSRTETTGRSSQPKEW

T3: human IL-18 binding protein (IL-18BP) (human, UniProt O95998 31-194)
T3 sequence (looked up): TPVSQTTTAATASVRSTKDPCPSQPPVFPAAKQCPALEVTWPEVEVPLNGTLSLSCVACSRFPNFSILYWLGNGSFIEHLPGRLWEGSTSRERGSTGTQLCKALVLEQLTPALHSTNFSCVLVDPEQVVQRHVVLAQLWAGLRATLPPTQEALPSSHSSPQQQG

T4: IL-18 receptors on HEK-Blue IL-18 reporter cells (UniProt Q13478 19-541; O95256 20-599, limits assumed)
T4 sequence (looked up) 1: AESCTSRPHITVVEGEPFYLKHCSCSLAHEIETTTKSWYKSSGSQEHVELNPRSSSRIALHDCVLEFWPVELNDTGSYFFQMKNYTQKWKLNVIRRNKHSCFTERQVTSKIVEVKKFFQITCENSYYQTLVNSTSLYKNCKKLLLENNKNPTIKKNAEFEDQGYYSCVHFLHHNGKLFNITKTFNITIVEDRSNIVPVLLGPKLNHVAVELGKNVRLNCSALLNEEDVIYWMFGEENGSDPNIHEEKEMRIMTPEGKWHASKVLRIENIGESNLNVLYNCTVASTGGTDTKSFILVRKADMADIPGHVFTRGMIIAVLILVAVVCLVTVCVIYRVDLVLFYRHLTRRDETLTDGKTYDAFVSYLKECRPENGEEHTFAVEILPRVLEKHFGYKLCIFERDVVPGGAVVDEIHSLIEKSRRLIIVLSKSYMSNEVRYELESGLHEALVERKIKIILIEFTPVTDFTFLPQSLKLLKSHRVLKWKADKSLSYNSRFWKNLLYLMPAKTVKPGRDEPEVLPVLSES
T4 sequence (looked up) 2: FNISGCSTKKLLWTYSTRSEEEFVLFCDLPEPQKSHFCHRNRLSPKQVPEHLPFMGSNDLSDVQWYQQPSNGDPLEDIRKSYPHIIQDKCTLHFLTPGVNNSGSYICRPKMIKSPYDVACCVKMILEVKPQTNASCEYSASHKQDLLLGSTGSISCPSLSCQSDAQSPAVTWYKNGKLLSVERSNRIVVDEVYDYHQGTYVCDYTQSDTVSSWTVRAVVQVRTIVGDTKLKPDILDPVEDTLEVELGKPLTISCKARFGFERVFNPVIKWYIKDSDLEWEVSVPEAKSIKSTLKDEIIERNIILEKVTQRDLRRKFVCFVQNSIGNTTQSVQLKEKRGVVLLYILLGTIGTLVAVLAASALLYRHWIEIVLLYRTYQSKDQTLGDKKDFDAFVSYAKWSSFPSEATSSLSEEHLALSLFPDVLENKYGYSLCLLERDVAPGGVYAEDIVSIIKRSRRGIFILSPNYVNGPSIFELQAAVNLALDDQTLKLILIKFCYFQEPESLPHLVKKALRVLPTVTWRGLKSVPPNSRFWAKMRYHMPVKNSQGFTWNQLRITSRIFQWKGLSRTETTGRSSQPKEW

T5: human IL-18 binding protein (human, UniProt O95998 31-194)
T5 sequence (looked up): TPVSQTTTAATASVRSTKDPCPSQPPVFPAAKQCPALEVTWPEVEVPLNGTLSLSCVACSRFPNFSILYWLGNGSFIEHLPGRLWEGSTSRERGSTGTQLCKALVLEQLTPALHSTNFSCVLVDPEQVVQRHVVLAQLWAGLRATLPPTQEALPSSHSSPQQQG

B1: hIL18 (G3T, K53S, M60K) - KiH (Fc fusion)
chain: YFTKLESKLSVIRNLNDQVLFIDQGNRPLFEDMTDSDMRDNAPRTIFIISMYSDSQPRGKAVTISVKSEKISTLSSENKIISFKEMNPPDNIKDTKSDIIFFQRSVPGHDNKMQFESSSYEGYFLASEKERDLFKLILKKEDELGDRSIMFTVQNED
B2: hIL18 (G3V, K53S, M60K) - KiH (Fc fusion)
chain: YFVKLESKLSVIRNLNDQVLFIDQGNRPLFEDMTDSDMRDNAPRTIFIISMYSDSQPRGKAVTISVKSEKISTLSSENKIISFKEMNPPDNIKDTKSDIIFFQRSVPGHDNKMQFESSSYEGYFLASEKERDLFKLILKKEDELGDRSIMFTVQNED
B3: IL-18 variant M60K (ligand)
chain: YFGKLESKLSVIRNLNDQVLFIDQGNRPLFEDMTDSDMRDNAPRTIFIISMYKDSQPRGKAVTISVKSEKISTLSSENKIISFKEMNPPDNIKDTKSDIIFFQRSVPGHDNKMQFESSSYEGYFLASEKERDLFKLILKKEDELGDRSIMFTVQNED
B4: yeast display IL-18 variant K53Y, S55G (ligand)
chain: YFGKLESKLSVIRNLNDQVLFIDQGNRPLFEDMTDSDMRDNAPRTIFIISMYYDGQPRGMAVTISVKSEKISTLSSENKIISFKEMNPPDNIKDTKSDIIFFQRSVPGHDNKMQFESSSYEGYFLASEKERDLFKLILKKEDELGDRSIMFTVQNED
B5: yeast display IL-18 variant T34I, S36V, D40I, N41M, K53G, S55Y (ligand)
chain: YFGKLESKLSVIRNLNDQVLFIDQGNRPLFEDMIDVDMRIMAPRTIFIISMYGDYQPRGMAVTISVKSEKISTLSSENKIISFKEMNPPDNIKDTKSDIIFFQRSVPGHDNKMQFESSSYEGYFLASEKERDLFKLILKKEDELGDRSIMFTVQNED
B6: IL-18 variant M60K, D157E (ligand)
chain: YFGKLESKLSVIRNLNDQVLFIDQGNRPLFEDMTDSDMRDNAPRTIFIISMYKDSQPRGKAVTISVKSEKISTLSSENKIISFKEMNPPDNIKDTKSDIIFFQRSVPGHDNKMQFESSSYEGYFLASEKERDLFKLILKKEDELGDRSIMFTVQNEE

Columns and labels:
Experiment in all cases: cell-based or functional assay
[1] = target: T1, IL-18 receptor (IL-18Rα and IL-18Rβ)
[2] = target: T2, IL-18 receptors on HEK-Blue IL-18 …
[3] = target: T3, human IL-18 binding protein (IL-18BP)
[4] = target: T4, IL-18 receptors on HEK-Blue IL-18 …
[5] = target: T5, human IL-18 binding protein

Binder | EC50 (pM), PBMC IFN gamma assay, average [1] | EC50 (pM), PBMC IFN gamma assay, run 1 [1] | EC50 (pM), PBMC IFN gamma assay, run 2 [1] | EC50 (pM), PBMC IFN gamma assay, run 3 [1] | PBMC IFN gamma EC50 relative to WT-IL18, average [1] | PBMC IFN gamma EC50 relative to WT-IL18, run 1 [1] | PBMC IFN gamma EC50 relative to WT-IL18, run 2 [1] | PBMC IFN gamma EC50 relative to WT-IL18, run 3 [1] | HEK-Blue EC50 pM, NO BP (50 nM BP run) [2] | HEK-Blue EC50 pM, NO BP (300 nM BP run) [2] | Fold Change (BP/NO BP), 50 nM BP [3] | Fold Change (BP/NO BP), 300 nM BP [3] | HEK-Blue EC50 pM, +50 nM BP [3] | HEK-blue EC50 (pM) + 300 nM BP [3] | HEK-Blue activity, No BP, DF-10000 [4] | HEK-Blue activity, No BP, DF-100,000 [4] | HEK-Blue activity, No BP, DF-1,000,000 [4] | HEK-Blue activity, +100 nM BP, DF-10000 [5] | HEK-Blue activity, +100 nM BP, DF-100,000 [5] | HEK-Blue activity, +100 nM BP, DF-1,000,000 [5] | further results
B1 | 906 pM | 810 pM | 1120 pM | 784 pM | 6.3 | 3.36 | 10.7 | 4.85 |  |  |  |  |  |  |  |  |  |  |  |  | 
B2 | 576 pM | 589 pM | 535 pM | 603 pM | 3.75 | 2.45 | 5.08 | 3.73 |  |  |  |  |  |  |  |  |  |  |  |  | 
B3 |  |  |  |  |  |  |  |  | 2.9 pM | 3.96 pM | 1.64 fold | 9.67 fold | 4.77 pM | 38.3 pM |  |  |  |  |  |  | 
B4 |  |  |  |  |  |  |  |  |  |  |  |  |  |  | 0.36 | 0.14 | 0.12 | 0.21 | 0.16 | 0.13 | Ratio (-BP/+BP), DF-10000 [5]: 1.71; Ratio (-BP/+BP), DF-100,000 [5]: 0.88; Ratio (-BP/+BP), DF-1,000,000 [5]: 0.94
B5 |  |  |  |  |  |  |  |  |  |  |  |  |  |  | 0.3 | 0.11 | 0.14 | 0.21 | 0.1 | 0.09 | Ratio (-BP/+BP), DF-10000 [5]: 1.46; Ratio (-BP/+BP), DF-100,000 [5]: 1.11; Ratio (-BP/+BP), DF-1,000,000 [5]: 1.52
B6 |  |  |  |  |  |  |  |  | 1.3 pM | 1.67 pM | 1.25 fold | 9.04 fold | 1.62 pM | 15.1 pM |  |  |  |  |  |  | 
